# PMC10868436, “Discovery of broadly‐neutralizing antibodies against brown recluse spider and Gadim scorpion sphingomyelinases using consensus toxins as antigens” (Protein Science : A Publication of the Protein Society, 2024)
# Legend:
# [1] = biological target: T1, recombinant SMase from H. lepturus (Hemiscorpius lepturus, UniProt A0A1L4BJ98); experiment: BLI; ForteBio Octet RED96, […]; 1:1 binding model, […]; triplicate; conditions: both partners purified
# T1 construct: also called rHl; recombinant sphingomyelinase from Hemiscorpius lepturus; source: E. coli BL21(DE3), purified (HisPur Ni-NTA)
# [2] = biological target: T2, recombinant SMase from L. rufescens (Loxosceles rufescens, UniProt C0JB02); experiment: as above; conditions: both partners purified
# T2 construct: also called rLr; recombinant sphingomyelinase from Loxosceles rufescens; source: E. coli BL21(DE3), purified (HisPur Ni-NTA)
# T2 sequence (C0JB02 whole entry, looked up): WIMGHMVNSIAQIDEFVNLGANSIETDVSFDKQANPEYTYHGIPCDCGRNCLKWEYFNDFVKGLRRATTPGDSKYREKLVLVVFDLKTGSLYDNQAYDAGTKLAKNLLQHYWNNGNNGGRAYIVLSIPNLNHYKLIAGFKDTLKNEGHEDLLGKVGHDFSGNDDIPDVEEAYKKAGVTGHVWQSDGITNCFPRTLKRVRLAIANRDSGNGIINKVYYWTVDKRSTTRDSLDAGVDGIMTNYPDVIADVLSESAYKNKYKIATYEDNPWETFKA
# T1 sequence (A0A1L4BJ98 whole entry, looked up): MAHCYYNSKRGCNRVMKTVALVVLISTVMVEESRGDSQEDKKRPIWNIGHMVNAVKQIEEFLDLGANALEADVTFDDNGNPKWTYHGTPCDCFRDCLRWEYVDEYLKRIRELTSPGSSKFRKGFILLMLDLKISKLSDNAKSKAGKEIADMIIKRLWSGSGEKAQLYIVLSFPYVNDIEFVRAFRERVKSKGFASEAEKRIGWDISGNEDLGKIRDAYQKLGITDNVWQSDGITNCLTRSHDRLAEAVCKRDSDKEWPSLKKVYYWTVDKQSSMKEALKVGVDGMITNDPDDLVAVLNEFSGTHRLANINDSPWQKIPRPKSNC
Binder,Kd [1] [nM],Kd [2] [nM]
"TPL0674_03_A04 (scFv, V domains shown, also called scFv TPL0674_03_A04) VH: QVQLVQSGSELKKPGASVKVSCKASGYTFTSYAMNWVRQAPGQGLEWMGWINTNTGNPTYAQGFTGRFVFSLDTSVSTAYLQISSLKAEDTAVYYCARDQGGDRHFGYWGQGTTVTVSS VL: QSELTQPPSASGTPGQRVTISCSGSSSNIGSHRVNWYQQLPGTAPKLLIYSNYHRPAGVPDRFSASKSGTSASLAISGLQSEDEADYYCAAWDDSLNGYVFGTGTQLTVL",45.3,66.9
"TPL0674_03_F05 (scFv, V domains shown, also called scFv TPL0674_03_F05) VH: EVQLVQSGAEVKKPGASVRVSCKASGYSITNYGISWVRQAPGQGLEWMGWINTYNGNTNYAQKFQGRVTMTRDTSISTAYMELSRLRSDDTAVYYCARDHPYRGMDVWGQGTLVTVSS VL: SYELTQDPAVSVALGQTVRITCQGDSLRSYYASWYQQKPGQAPVLVIYGKNNRPSGIPDRFSGSSSGNTASLTITGAQAEDEADYYCNSRDSSGNHPHVVFGGGTKLTVL",51.6,80.4
